According to ChEMBL document CHEMBL1145332, “Design of inhibitors of orotidine monophosphate decarboxylase using bioisosteric replacement and determination of inhibition kinetics” (J Med Chem, 2006):

Key:
[1] = substrate: O=C(O)c1cc(=O)[nH]c(=O)n1[C@@H]1O[C@H](COP(=O)(O)O)[C@@H](O)[C@H]1O; assay: Affinity for Methanobacterium thermoautotrophicum ODCase at 55 degreeC by ITC method
[2] = substrate: O=C(O)c1cc(=O)[nH]c(=O)n1[C@@H]1O[C@H](COP(=O)(O)O)[C@@H](O)[C@H]1O; assay: Affinity for Methanobacterium thermoautotrophicum ODCase at 25 degreeC by ITC method
[3] = substrate: O=C(O)c1cc(=O)[nH]c(=O)n1[C@@H]1O[C@H](COP(=O)(O)O)[C@@H](O)[C@H]1O; assay: Affinity for Plasmodium falciparum ODCase at 25 degreeC by UV-based assay
[4] = substrate: O=C(O)c1cc(=O)[nH]c(=O)n1[C@@H]1O[C@H](COP(=O)(O)O)[C@@H](O)[C@H]1O; assay: Affinity for Saccharomyces cerevisiae ODCase at 25 degreeC by UV-based assay

B1: Orotidine 5'-phosphate decarboxylase (Methanobacterium thermoautotrophicum), O26232 (protein)
chain: MRSRRVDVMDVMNRLILAMDLMNRDDALRVTGEVREYIDTVKIGYPLVLSEGMDIIAEFRKRFGCRIIADFKVADIPETNEKICRATFKAGADAIIVHGFRGADSVRACLNVAEEMGREVFLLTEMSHPGAEMFIQGAADEIARMGVDLGVKNYVGPSTRPERLSRLREIIGQDSFLISPGVGAQGGDPGETLRFADAIIVGRSIYLADNPAAAAAGIIESIKDLLNP
B1 showed a Km [1] of 5 µM and a Km [2] of 2 µM.

B2: Orotidine phosphate decarboxylase (Plasmodium falciparum), Q8T6J6 (protein)
chain: MGFKVKLEKRRNAINTCLCIGLDPDEKDIENFMKNEKENNYNNIKKNLKEKYINNVSIKKDILLKAPDNIIREEKSEEFFYFFNHFCFYIINETNKYALTFKMNFAFYIPYGSVGIDVLKNVFDYLYELNIPTILDMKINDIGNTVKNYRKFIFEYLKSDSCTVNIYMGTNMLKDICYDEEKNKYYSAFVLVKTTNPDSAIFQKNLSLDNKQAYVIMAQEALNMSSYLNLEQNNEFIGFVVGANSYDEMNYIRTYFPNCYILSPGIGAQNGDLHKTLTNGYHKSYEKILINIGRAITKNPYPQKAAQMYYDQINAILKQNMES
Work on B2 yielded a Km [3] of 13 µM.

B3: Orotidine 5'-phosphate decarboxylase (Saccharomyces cerevisiae S288c), P03962 (protein)
chain: MSKATYKERAATHPSPVAAKLFNIMHEKQTNLCASLDVRTTKELLELVEALGPKICLLKTHVDILTDFSMEGTVKPLKALSAKYNFLLFEDRKFADIGNTVKLQYSAGVYRIAEWADITNAHGVVGPGIVSGLKQAAEEVTKEPRGLLMLAELSCKGSLATGEYTKGTVDIAKSDKDFVIGFIAQRDMGGRDEGYDWLIMTPGVGLDDKGDALGQQYRTVDDVVSTGSDIIIVGRGLFAKGRDAKVEGERYRKAGWEAYLRRCGQQN
With B3 the Km [4] was 0.7 µM.
